In this assay the target is FGF receptor-3c on human osteosarcoma cell line (ATCC, CRL 1543) (human) (UniProt P22607). Description: cell-based or functional assay.
UniProt P22607, sequence (P22607 23-806): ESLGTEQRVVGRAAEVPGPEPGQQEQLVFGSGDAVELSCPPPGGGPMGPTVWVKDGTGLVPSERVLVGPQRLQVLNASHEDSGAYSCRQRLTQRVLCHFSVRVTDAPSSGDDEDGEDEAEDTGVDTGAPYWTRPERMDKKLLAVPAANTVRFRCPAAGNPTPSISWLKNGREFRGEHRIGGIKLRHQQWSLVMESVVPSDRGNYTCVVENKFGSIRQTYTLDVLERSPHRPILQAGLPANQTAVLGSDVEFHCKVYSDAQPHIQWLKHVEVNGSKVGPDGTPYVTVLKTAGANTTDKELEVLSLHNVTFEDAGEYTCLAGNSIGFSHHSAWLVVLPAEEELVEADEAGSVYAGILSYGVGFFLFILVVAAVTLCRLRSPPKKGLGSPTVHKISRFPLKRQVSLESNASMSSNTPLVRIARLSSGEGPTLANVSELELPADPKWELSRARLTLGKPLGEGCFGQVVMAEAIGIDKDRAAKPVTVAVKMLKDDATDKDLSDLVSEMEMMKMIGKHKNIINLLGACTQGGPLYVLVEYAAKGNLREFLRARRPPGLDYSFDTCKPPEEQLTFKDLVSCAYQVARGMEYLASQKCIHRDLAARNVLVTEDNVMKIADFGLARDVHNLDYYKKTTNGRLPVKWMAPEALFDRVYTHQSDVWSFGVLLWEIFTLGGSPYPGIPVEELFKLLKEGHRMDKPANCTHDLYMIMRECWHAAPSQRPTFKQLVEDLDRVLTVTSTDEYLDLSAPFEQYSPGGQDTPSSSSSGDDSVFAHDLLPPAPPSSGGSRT

FGF-18-saporin conjugate, sequence (O76093 28-207): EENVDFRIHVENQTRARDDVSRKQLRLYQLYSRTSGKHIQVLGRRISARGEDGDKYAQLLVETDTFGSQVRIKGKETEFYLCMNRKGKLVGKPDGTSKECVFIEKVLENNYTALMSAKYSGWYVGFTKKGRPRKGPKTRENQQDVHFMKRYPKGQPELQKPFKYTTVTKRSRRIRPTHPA

For FGF-18-saporin conjugate, the LD50 (sensitivity of cell lines to the FGF-18-saporin conjugate) is under 1 nM.

The record behind these values is patent US20030152568A1.
